For this assay, the target named is T1, tyrosine phosphatase SHP-1 (human, UniProt P29350 1-595).
T1 construct: mature
Description: anti-PZR immunoprecipitation from pervanadate-treated cells, Western blot.

We go through one molecule from US20030171565A1 (VANDERBILT UNIVERSITY, published 2003).

T1 sequence (P29350 whole entry): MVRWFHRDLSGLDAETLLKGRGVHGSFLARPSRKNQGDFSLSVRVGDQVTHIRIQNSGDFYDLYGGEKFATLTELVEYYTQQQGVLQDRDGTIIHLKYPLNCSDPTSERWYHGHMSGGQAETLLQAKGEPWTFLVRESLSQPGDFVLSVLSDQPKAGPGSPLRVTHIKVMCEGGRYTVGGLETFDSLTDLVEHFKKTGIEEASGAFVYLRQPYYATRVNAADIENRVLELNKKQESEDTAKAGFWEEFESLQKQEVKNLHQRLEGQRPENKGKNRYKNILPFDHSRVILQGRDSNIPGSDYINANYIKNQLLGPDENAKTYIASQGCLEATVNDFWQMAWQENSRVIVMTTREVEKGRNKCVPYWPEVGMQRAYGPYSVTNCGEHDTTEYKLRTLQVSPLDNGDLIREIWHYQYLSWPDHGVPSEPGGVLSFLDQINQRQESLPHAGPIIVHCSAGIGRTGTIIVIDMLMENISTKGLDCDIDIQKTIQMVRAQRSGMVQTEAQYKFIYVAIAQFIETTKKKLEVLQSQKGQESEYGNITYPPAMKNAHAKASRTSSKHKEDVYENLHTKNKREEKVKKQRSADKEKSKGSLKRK

B1: protein zero related (PZR), tyrosine-phosphorylated (receptor)
chain: SALEVYTPKEIFVANGTQGKLTCKFKSTSTTGGLTSVSWSFQPEGADTTVSFFHYSQGQVYLGNYPPFKDRISWAGDLDKKDASINIENMQFIHNGTYICDVKNPPDIVVQPGHIRLYVVEKENLPVFPVWVVVGIVTAVVLGLTLLISMILAVLYRRKNSKRDYTGCSTSESLSPVKQAPRKSPSDTEGLVKSLPSGSHQGPVIYAQLDHSGGHHSDKINKSESVVYADIRKN
modifications: phosphotyrosine at 241 and 263 (cells treated with pervanadate, or cells expressing catalytically inactive SHP-2); N-glycosylated
notes: It was assayed in Triton X-100 cell extracts or as protein purified from 293 cells; also called hPZR; p43
As to B1, the binding result is on record as “no binding”.
